From the supplement of paper PMC10567573
± gives the standard deviation.

Test: protein stability index of a GFP-peptide fusion (GPS, HEK-293T) (PSI 1-6); higher = more stable
Conditions: c terminus: a fixed tail appended
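Further: 24-mer peptide tiles fused after GFP, lentivirally expressed, FACS-sorted into six equal bins by GFP/DsRed ratio, decoded by Illumina sequencing, PSI is the read-weighted mean bin number.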

LTVEGFQSWMWRGLTFLLPFLFFG [TMEM120A]
protein stability index (treatment: DMSO): 2.98 ± 0.45
protein stability index (treatment: MLN4924 1 uM, 8 h): 2.74 ± 0.035

ASVLLQAVLYPRFMGTISDVKTNV [CD207]
protein stability index (treatment: DMSO): 2.76 ± 0.38
protein stability index (treatment: MLN4924 1 uM, 8 h): 2.69 ± 0.41

PGPAPGSPGELEEDLLLPGACPGA [WEE1]
protein stability index (treatment: DMSO): 5.24 ± 0.52
protein stability index (treatment: MLN4924 1 uM, 8 h): 5.49 ± 0.13

CMKIPTGQEYAAKIINTKKLSARD [CAMK2D]
protein stability index (treatment: DMSO): 3.7 ± 0.69
protein stability index (treatment: MLN4924 1 uM, 8 h): 3.83 ± 0.42

NCKLATRAKDFLPADIQAQFAISR [SNX8]
protein stability index (treatment: DMSO): 2.45 ± 0.21
protein stability index (treatment: MLN4924 1 uM, 8 h): 2.73 ± 0.52

LGVRRPGGAGKEGVRVNNRFELIN [TCF25]
protein stability index (treatment: DMSO): 3.05 ± 0.39
protein stability index (treatment: MLN4924 1 uM, 8 h): 3.12 ± 0.43

CRYPYEYEGGHIKGAVNLHMEEEV [CDC25A]
protein stability index (treatment: DMSO): 3.8 ± 0.34
protein stability index (treatment: MLN4924 1 uM, 8 h): 3.7 ± 0.33

TSVLDALSTDMVHAASDPSSSSGR [SMOC2]
protein stability index (treatment: DMSO): 4.99 ± 0.19
protein stability index (treatment: MLN4924 1 uM, 8 h): 4.96 ± 0.18

ITYQPAASTKMCEQALGKGCGADS [PLK2]
protein stability index (treatment: DMSO): 4.06 ± 0.36
protein stability index (treatment: MLN4924 1 uM, 8 h): 4.44 ± 0.24

FSLACSLMGPSRMSLFSLYMVQDQ [M1AP]
protein stability index (treatment: DMSO): 3.19 ± 0.42
protein stability index (treatment: MLN4924 1 uM, 8 h): 2.99 ± 0.32

WLYCYDPVMDVWARKQDMNTKRAI [KLHL14]
protein stability index (treatment: DMSO): 2.07 ± 0.28
protein stability index (treatment: MLN4924 1 uM, 8 h): 2.53 ± 0.55

GYDHLWDETLSSSHQKCPQLGGPE [PLEKHN1]
protein stability index (treatment: DMSO): 4.19 ± 0.3
protein stability index (treatment: MLN4924 1 uM, 8 h): 4.31 ± 0.32

SSHSRGPLSWAPCGPIAGSRQALS
protein stability index (treatment: DMSO): 3.42 ± 0.13
protein stability index (treatment: MLN4924 1 uM, 8 h): 3.44 ± 0.17

QEEEQAETPMAPVPLGPLGETYCE [TRIM15]
protein stability index (treatment: DMSO): 5.4 ± 0.17
protein stability index (treatment: MLN4924 1 uM, 8 h): 5.57 ± 0.16

QRVKLKLWDTSGQGRFCTIFRSYS [RAB40A]
protein stability index (treatment: DMSO): 2.3 ± 0.29
protein stability index (treatment: MLN4924 1 uM, 8 h): 2.14 ± 0.33

VQREKDLPNYNWNSFGLRFGKREA [KISS1]
protein stability index (treatment: DMSO): 3.28 ± 0.12
protein stability index (treatment: MLN4924 1 uM, 8 h): 3.19 ± 0.18

LQQAQAQFRMAQEEARRNRLMRDM [SMG5]
protein stability index (treatment: DMSO): 3.89 ± 0.22
protein stability index (treatment: MLN4924 1 uM, 8 h): 4.11 ± 0.27

TRAADLLVNPLDPRNADKIRVKIA [SRPK2]
protein stability index (treatment: DMSO): 3.64 ± 0.48
protein stability index (treatment: MLN4924 1 uM, 8 h): 3.75 ± 0.23

QLLEDAILIIQGVLSDINLKKGES [NET1]
protein stability index (treatment: DMSO): 3.37 ± 0.24
protein stability index (treatment: MLN4924 1 uM, 8 h): 3.77 ± 0.19

TKVGSFMIRESETKKGFYSLSVRH [SLA]
protein stability index (treatment: DMSO): 2.68 ± 0.37
protein stability index (treatment: MLN4924 1 uM, 8 h): 2.66 ± 0.69

THRDRPSQQQPLRNQVVSSTNGEL [CSNK1G1]
protein stability index (treatment: DMSO): 4.93 ± 0.33
protein stability index (treatment: MLN4924 1 uM, 8 h): 4.71 ± 0.36

TSFNHMDSDKLSGLWSRISHLVLP [TOR1AIP2]
protein stability index (treatment: DMSO): 2.28 ± 0.2
protein stability index (treatment: MLN4924 1 uM, 8 h): 2.33 ± 0.2

NISGLRFETQLKTLCQFPETLLGD [KCNA3]
protein stability index (treatment: DMSO): 2.89 ± 0.26
protein stability index (treatment: MLN4924 1 uM, 8 h): 3.03 ± 0.23

VKKCLELFSELAEDKENYKKFYEA [HSP90AB1]
protein stability index (treatment: DMSO): 2.54 ± 0.34
protein stability index (treatment: MLN4924 1 uM, 8 h): 2.74 ± 0.33

KEPVIIECGHNFCKACITRWWEDL [TRIM39]
protein stability index (treatment: DMSO): 2.53 ± 0.5
protein stability index (treatment: MLN4924 1 uM, 8 h): 2.62 ± 0.36

WEVQVSPTCPVCKDRASPADLRTN [TRIM35]
protein stability index (treatment: DMSO): 3.2 ± 0.43
protein stability index (treatment: MLN4924 1 uM, 8 h): 3.61 ± 0.27

QRAEMLPKTSGTRATSLGRPEEEE [CPOX]
protein stability index (treatment: DMSO): 5.47 ± 0.37
protein stability index (treatment: MLN4924 1 uM, 8 h): 5.49 ± 0.28

ELVHFLLLKYRAREPVTKAEMLGS [MAGEA3]
protein stability index (treatment: DMSO): 2.54 ± 0.63
protein stability index (treatment: MLN4924 1 uM, 8 h): 2.73 ± 0.92

VQARMLSSTTILVQWKEPEEPNGQ [PTPRD]
protein stability index (treatment: DMSO): 3.27 ± 0.34
protein stability index (treatment: MLN4924 1 uM, 8 h): 3.19 ± 0.35

QPCFFQDISMEIPQEFQKTVSTMY [SCAMP3]
protein stability index (treatment: DMSO): 2.55 ± 0.4
protein stability index (treatment: MLN4924 1 uM, 8 h): 2.64 ± 0.23

KAEPRLPDRVYIHPDSPATGAHWM [TBX6]
protein stability index (treatment: DMSO): 3.09 ± 0.12
protein stability index (treatment: MLN4924 1 uM, 8 h): 3.23 ± 0.35

EESFRQMVVIHKEIPTGKKDHECS [ZNF232]
protein stability index (treatment: DMSO): 4.84 ± 0.31
protein stability index (treatment: MLN4924 1 uM, 8 h): 4.77 ± 0.11

LNVHDLDSEQNGQVTCSILAYLPF [PCDHGA10]
protein stability index (treatment: DMSO): 2.24 ± 0.22
protein stability index (treatment: MLN4924 1 uM, 8 h): 2.19 ± 0.41

KRGSIPTSLTALSLASASPPLSGR [PPFIA4]
protein stability index (treatment: DMSO): 3.99 ± 0.2
protein stability index (treatment: MLN4924 1 uM, 8 h): 4.17 ± 0.28

NDMSPSNNVVPIHVPPTTENKPKV [RAB11A]
protein stability index (treatment: DMSO): 5.42 ± 0.12
protein stability index (treatment: MLN4924 1 uM, 8 h): 5.33 ± 0.19

GPMPMSMPNVMTGTMGMAPLGNTP [CLINT1]
protein stability index (treatment: DMSO): 4.03 ± 0.21
protein stability index (treatment: MLN4924 1 uM, 8 h): 4.02 ± 0.31
